The record followed here is patent publication CN116178545A (GUANGDONG FEIPENG PHARMACEUTICAL CO LTD, dated 2023).

Numbering of substitutions follows the chain as printed.

As usually defined, the EC50 is the concentration needed to bring the measured effect to its halfway point. High values mean a need for much substance, low ones an effect from little substance. A word on the Kd: it is a measure of binding affinity in units of concentration. The low end stands for tighter binding, the high end for weaker binding.

Sequences and labels used below:
T1: 重组人PD-L2蛋白 (human, UniProt Q9BQ51 20-219)
T1 construct: The words 携带hFc标签的 stand before the first protein of the list; also called Acrobiosystem Cat.PD2-H5251
T1 sequence (looked up): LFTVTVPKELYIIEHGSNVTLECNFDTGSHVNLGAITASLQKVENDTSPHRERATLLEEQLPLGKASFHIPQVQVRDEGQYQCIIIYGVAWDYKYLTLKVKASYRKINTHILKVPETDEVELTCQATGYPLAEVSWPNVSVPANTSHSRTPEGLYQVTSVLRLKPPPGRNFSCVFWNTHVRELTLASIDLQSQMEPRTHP

T2: 重组人CD276蛋白 (human, UniProt Q5ZPR3-2 29-245)
T2 construct: The words 携带hFc标签的 stand before the first protein of the list; also called B7-H3; Acrobiosystem Cat.B73-H5253
T2 sequence (looked up): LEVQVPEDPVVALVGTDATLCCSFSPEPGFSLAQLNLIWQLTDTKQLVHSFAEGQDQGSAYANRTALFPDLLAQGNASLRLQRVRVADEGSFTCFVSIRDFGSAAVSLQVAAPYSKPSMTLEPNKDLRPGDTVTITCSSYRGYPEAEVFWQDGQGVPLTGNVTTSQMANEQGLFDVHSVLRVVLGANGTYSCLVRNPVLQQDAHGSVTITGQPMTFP

T3: 重组人ICOS蛋白 (human, UniProt Q9Y6W8 21-140)
T3 construct: The words 携带hFc标签的 stand before the first protein of the list; also called Acrobiosystem Cat.ICS-H5250
T3 sequence (looked up): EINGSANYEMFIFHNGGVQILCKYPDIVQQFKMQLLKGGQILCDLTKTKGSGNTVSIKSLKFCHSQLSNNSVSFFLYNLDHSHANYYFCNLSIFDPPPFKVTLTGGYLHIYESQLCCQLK

T4: 重组人CD86蛋白 (human, UniProt P42081 26-247)
T4 construct: The words 携带hFc标签的 stand before the first protein of the list; also called Acrobiosystem Cat.CD6-H5257
T4 sequence (looked up): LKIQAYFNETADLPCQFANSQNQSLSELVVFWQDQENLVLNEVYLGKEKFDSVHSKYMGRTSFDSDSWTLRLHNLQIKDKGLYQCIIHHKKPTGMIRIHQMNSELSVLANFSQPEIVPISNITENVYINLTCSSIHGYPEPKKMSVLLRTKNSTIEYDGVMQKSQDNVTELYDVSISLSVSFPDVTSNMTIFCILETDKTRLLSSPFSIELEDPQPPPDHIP

T5: 重组人ICOSLG蛋白 (human, UniProt O75144 19-258)
T5 construct: The words 携带hFc标签的 stand before the first protein of the list; also called Acrobiosystem Cat.B72-H5254
T5 sequence (looked up): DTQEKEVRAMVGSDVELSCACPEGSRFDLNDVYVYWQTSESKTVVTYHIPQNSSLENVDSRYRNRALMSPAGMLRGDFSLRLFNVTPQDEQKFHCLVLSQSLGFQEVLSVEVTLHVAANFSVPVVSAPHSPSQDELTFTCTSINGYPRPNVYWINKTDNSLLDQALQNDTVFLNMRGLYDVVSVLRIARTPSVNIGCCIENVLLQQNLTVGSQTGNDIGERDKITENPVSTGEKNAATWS

B1: 176L3H2 (antibody, V domains shown)
VH: QVQLQESGPGLVKPSETLSLTCAVYGDSITSGYWNWIRKPPGKKLEYIGYISYTGSTYQNPSLKSRITMSRDTSKNQYYLKLSSVTAADTAVYYCARSRAWIRTYFDYWGQGTLVTVSS
VL: EIVLTQSPDFQSVTPKEKVTITCSVSSSISSSNLHWYQQKPDQSPKPWIYGTSNLASGVPSRFSGSGSGTDYSLTINSLEAEDAATYYCQQWSSYPLTFGQGTKLEIKR
notes: Whole humanized mAb expressed in 293 cells; detected with anti-human IgG; also called 抗人PD-L1人源化抗体176L3H2
B2: 176L4H2 (antibody, V domains shown)
VH: B1 VH
VL: DIQMTQSPSSLSASVGDRVTITCSVSSSISSSNLHWYQQKPGKAPKPWIYGTSNLASGVPSRFSGSGSGTDYTLTISSLQPEDFATYYCQQWSSYPLTFGQGTKLEIKR
notes: Whole humanized mAb expressed in 293 cells; detected with anti-human IgG; also called 抗人PD-L1人源化抗体176L4H2
B3: 176L4H3 (antibody, V domains shown)
VH: B1 VH with M69F
VL: B2 VL
notes: Whole humanized mAb expressed in 293 cells; detected with anti-human IgG; also called 抗人PD-L1人源化抗体176L4H3
B4: 176L4H4 (antibody, V domains shown)
VH: B1 VH with A23S, I48M, M69F
VL: B2 VL
notes: Whole humanized mAb expressed in 293 cells; detected with anti-human IgG; also called 抗人PD-L1人源化抗体176L4H4
B5: 176L6H5 (antibody, V domains shown)
VH: B1 VH with Q1E, K44G, I48M, M69F, V92T
VL: B1 VL with P47L, W48L, Y72F, S73T
notes: Whole humanized mAb expressed in 293 cells; detected with anti-human IgG; also called 抗人PD-L1人源化抗体176L6H5
B6: 176L4H1 (antibody, V domains shown)
VH: B1 VH with K44G
VL: B2 VL
notes: Whole humanized mAb expressed in 293 cells; detected with anti-human IgG; also called 抗人PD-L1人源化抗体176L4H1
B7: F016-870-hIgG1 (antibody, V domains shown)
VH: EVQLQESGPSLVKPSQTLSLTCSVTGDSITSGYWNWIRKFPGNKLEYMGYISYTGSTYQNPSLKSRISFTRDTSKNQYYLQLSSVTTEDTATYYCARSRAWIRTYFDYWGQGTTLTVSS
VL: EIVLTQSPALMAASPGEKVTITCSVSSSISSSNLHWYQQKSETSPKPWIYGTSNLASGVPVRFSGSGSGTSYSLTISSMEAEDAATYYCQQWSSYPLTFGAGTKLELKR

T7 sequence (Q9NZQ7 19-238): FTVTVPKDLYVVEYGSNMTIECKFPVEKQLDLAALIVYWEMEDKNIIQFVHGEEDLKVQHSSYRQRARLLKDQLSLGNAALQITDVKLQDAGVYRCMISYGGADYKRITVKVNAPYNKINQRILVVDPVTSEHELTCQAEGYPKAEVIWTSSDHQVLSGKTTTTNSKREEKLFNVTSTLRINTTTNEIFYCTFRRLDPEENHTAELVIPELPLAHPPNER
T10 sequence (P16410 37-162): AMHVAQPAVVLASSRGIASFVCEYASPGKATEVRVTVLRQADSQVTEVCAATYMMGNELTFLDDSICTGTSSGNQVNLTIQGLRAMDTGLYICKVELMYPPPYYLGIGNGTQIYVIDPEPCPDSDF

In one assay the target is T6, 人PD-L1 (on cells) (human, UniProt Q9NZQ7 19-290).
T6 construct: whole, on cells; One molecule for human PD-L1 on CHO-hPD-L1, on IFNγ-stimulated A375 and on CHO-hPD-L1-OKT3 cells; the cell is named under assay; also called CHO-hPD-L1稳定细胞株; 稳定表达人PD-L1的CHO
T6 sequence (Q9NZQ7 19-290): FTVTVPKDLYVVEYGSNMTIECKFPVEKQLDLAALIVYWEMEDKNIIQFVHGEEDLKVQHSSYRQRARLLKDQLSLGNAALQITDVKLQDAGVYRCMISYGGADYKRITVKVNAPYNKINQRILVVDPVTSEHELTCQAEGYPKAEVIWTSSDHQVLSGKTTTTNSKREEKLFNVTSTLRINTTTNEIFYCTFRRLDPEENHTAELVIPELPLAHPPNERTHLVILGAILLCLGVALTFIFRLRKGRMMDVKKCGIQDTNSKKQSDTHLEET
The experiment in a line: flow cytometry on IFNγ-stimulated A375 cells. Background: A flow cytometer gives signals particle by particle.
The molecule B1 registered an EC50 of approximately 0.2 nM.
In turn, B2 returned an EC50 of approximately 0.2 nM.
Regarding B3, the EC50 is approximately 0.2 nM.
Same read-out and setting: next, B4: approximately 0.2 nM.
The same measure, in the same setting: next, B5: approximately 0.2 nM.
Same read-out and setting: the same measure for B6: approximately 0.2 nM.

A further assay concerns the target T7, hPD-L1-his (human, UniProt Q9NZQ7 19-238).
T7 construct: extracellular domain; also called 携带his标签的人PD-L1胞外区重组蛋白; not shown: his tag
The experiment in a line: BLI (ForteBIO), hPD-L1-his on anti-Penta-HIS sensor. (In general: In BLI a coated tip is dipped into the sample, and binding shifts an interference pattern.)
Turning to B2, binding was characterised by a dissociation constant (Kd) of 0.0848 nM. In other words, the picomolar range.
For B3, the Kd was determined as 0.08 nM.
In turn, B4 yielded a Kd of 0.0881 nM.
B5: binding was characterised by a dissociation constant (Kd) of 0.0302 nM.
Same read-out and setting: next, B6: 0.0084 nM.
For the molecule B7, the Kd was less than 0.001 nM.

The target in a further assay is T8, 小鼠PD-L1 (on CHO cells) (mouse, UniProt Q9EP73 19-290).
T8 construct: whole, on cells; also called CHO-mPD-L1稳定细胞株; 稳定表达全长小鼠PD-L1的CHO
T8 sequence (Q9EP73 19-290): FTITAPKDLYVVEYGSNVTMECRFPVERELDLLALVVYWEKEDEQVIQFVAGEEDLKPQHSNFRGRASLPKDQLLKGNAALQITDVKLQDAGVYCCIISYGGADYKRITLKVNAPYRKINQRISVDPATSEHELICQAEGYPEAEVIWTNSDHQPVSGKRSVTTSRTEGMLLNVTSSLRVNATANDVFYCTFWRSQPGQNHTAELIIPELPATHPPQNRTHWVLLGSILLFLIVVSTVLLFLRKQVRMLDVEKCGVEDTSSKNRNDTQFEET
The assay is described as follows: flow cytometry on CHO-mPD-L1 cells.
Turning to B1, the binding result is listed as “no binding (tested: 20μg/ml)”.
B2: the binding result is on record as “no binding (tested: 20μg/ml)”.
As for B3, the binding result is reported as “no binding (tested: 20μg/ml)”.
Take B4: the binding result is reported as “no binding (tested: 20μg/ml)”.
For B5, the binding result is listed as “no binding (tested: 20μg/ml)”.
For B6, the binding result was “no binding (tested: 20μg/ml)”.

Another assay deals with T1, 重组人PD-L2蛋白. The experiment in a line: ELISA, protein coated at 1μg/ml. In general terms: In an ELISA, binding on a coated surface is turned into a signal by an enzyme label.
Take B1: the binding result was “no binding (tested: 10μg/ml)”.
The same measure, in the same setting: the same measure for B2: “no binding (tested: 10μg/ml)”; for B3: “no binding (tested: 10μg/ml)”.
As for B4, the binding result is recorded as “no binding (tested: 10μg/ml)”.
Still for that read-out and setting: next, B5: “no binding (tested: 10μg/ml)”.
Regarding B6, the binding result was “no binding (tested: 10μg/ml)”.

The next assay addresses T2, 重组人CD276蛋白. The assay is described as follows: ELISA, protein coated at 1μg/ml.
Take B1: the binding result is reported as “no binding (tested: 10μg/ml)”.
With B2, the binding result is given as “no binding (tested: 10μg/ml)”.
For B3, the binding result is given as “no binding (tested: 10μg/ml)”.
Take B4: the binding result was “no binding (tested: 10μg/ml)”.
In the case of B5, the binding result is on record as “no binding (tested: 10μg/ml)”.
B6: the binding result is on record as “no binding (tested: 10μg/ml)”.

Another assay has as its target T3, 重组人ICOS蛋白. The experiment in a line: ELISA, protein coated at 1μg/ml.
Turning to B1, the binding result is “no binding (tested: 10μg/ml)”.
Consider B2, for which the binding result was “no binding (tested: 10μg/ml)”.
Same read-out and setting: next, B3: “no binding (tested: 10μg/ml)”; B4: “no binding (tested: 10μg/ml)”; B5: “no binding (tested: 10μg/ml)”.
Same read-out and setting: the same measure for B6: “no binding (tested: 10μg/ml)”.

Another assay addresses T4, 重组人CD86蛋白. The assay is described as follows: ELISA, protein coated at 1μg/ml.
As for B1, the binding result is on record as “no binding (tested: 10μg/ml)”.
As for B2, the binding result is “no binding (tested: 10μg/ml)”.
On to B3, for which the binding result is listed as “no binding (tested: 10μg/ml)”.
In the case of B4, the binding result is listed as “no binding (tested: 10μg/ml)”.
Regarding B5, the binding result was “no binding (tested: 10μg/ml)”.
As to B6, the binding result was “no binding (tested: 10μg/ml)”.

For the next assay, the target named is T9, 重组人PD-1蛋白(自产) (human, UniProt Q15116 25-167).
T9 construct: The words 携带hFc标签的 stand before the first protein of the list
T9 sequence (Q15116 25-167): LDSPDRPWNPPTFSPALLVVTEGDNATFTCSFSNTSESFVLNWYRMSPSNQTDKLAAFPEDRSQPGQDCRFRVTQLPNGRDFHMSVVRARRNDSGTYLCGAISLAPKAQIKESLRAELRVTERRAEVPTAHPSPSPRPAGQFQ
The assay is described as follows: ELISA, protein coated at 1μg/ml.
With B1, the binding result is reported as “no binding (tested: 10μg/ml)”.
The same measure, in the same setting: the same measure for B2: “no binding (tested: 10μg/ml)”; for B3: “no binding (tested: 10μg/ml)”; for B4: “no binding (tested: 10μg/ml)”.
Regarding B5, the binding result was “no binding (tested: 10μg/ml)”.
Take B6: the binding result was “no binding (tested: 10μg/ml)”.

The next assay addresses T10, 重组人CTLA-4蛋白 (human, UniProt P16410 37-162).
T10 construct: The words 携带hFc标签的 stand before the first protein of the list; also called Acrobiosystem Cat.CT4-H5255
The experiment in a line: ELISA, protein coated at 1μg/ml.
Turning to B1, the binding result is given as “no binding (tested: 10μg/ml)”.
Consider B2, for which the binding result was “no binding (tested: 10μg/ml)”.
Same read-out and setting: the same measure for B3: “no binding (tested: 10μg/ml)”.
On the same count and under the same terms, the same measure for B4: “no binding (tested: 10μg/ml)”.
With B5, the binding result was “no binding (tested: 10μg/ml)”.
Consider B6, for which the binding result is “no binding (tested: 10μg/ml)”.

The next assay deals with T5, 重组人ICOSLG蛋白. The experiment in a line: ELISA, protein coated at 1μg/ml.
Consider B1, for which the binding result is reported as “no binding (tested: 10μg/ml)”.
Consider B2, for which the binding result was “no binding (tested: 10μg/ml)”.
As for B3, the binding result was “no binding (tested: 10μg/ml)”.
Consider B4, for which the binding result is recorded as “no binding (tested: 10μg/ml)”.
In the case of B5, the binding result is given as “no binding (tested: 10μg/ml)”.
On to B6, for which the binding result was “no binding (tested: 10μg/ml)”.

The target in a further assay is T11, 重组人CD28蛋白 (human, UniProt P10747 19-152).
T11 construct: The words 携带hFc标签的 stand before the first protein of the list; also called Acrobiosystem Cat.CD8-H525a
The assay is described as follows: ELISA, protein coated at 1μg/ml.
Take B1: the binding result is “no binding (tested: 10μg/ml)”.
With B2, the binding result is “no binding (tested: 10μg/ml)”.
Take B3: the binding result is on record as “no binding (tested: 10μg/ml)”.
Consider B4, for which the binding result is listed as “no binding (tested: 10μg/ml)”.
Take B5: the binding result is recorded as “no binding (tested: 10μg/ml)”.
The same measure, in the same setting: next, B6: “no binding (tested: 10μg/ml)”.
